# In patent publication US9789213B2, “EGFL7 targeting and/or binding polypeptides and methods for inhibiting angiogenesis” (LONDON HEALTH SCIENCES CENTRE RESEARCH INC., priority 2012, dated 2017):
# Where no end group is shown, it is not given here. The star is where a group is joined. FITC = O=C1OC2(c3ccc(O)cc3Oc3cc(O)ccc32)c2ccc(NC(=S)*)cc21
# Tested on: HUVECs
# Experiment: Cell uptake of FITC-labelled peptide by HUVECs with or without EGFL7 siRNA knockdown, flow cytometry
# Type: cell-based, human
# Conditions: HUVECs treated with negative siRNA or EGFL7 siRNA; 1 mM, 1 hour at 4° C.
# Method: EGFL7 knockdown in human umbilical vein endothelial cells (HUVECs) was achieved using a siRNA targeting the exon 5 of the protein and INTERFERin transfection reagent (HUVECs-si). Wildtype HUVECs and HUVECs-si cells were seeded onto separate wells in a 6-well tissue culture plate to approximately 80% confluency. The cells were incubated overnight in DMEM containing 10% fetal bovine serum and Pen/Strep at 37° C. with 5% CO2. The media in each well were removed and replaced with pre-chilled PBS. FITC-E7-p72 (FITC-HMYFLLGH; SEQ ID NO: 20) was added onto cells to a final concentration of 1 mM and incubated for 1 hour at 4° C. Cells were detached from the well with EDTA, washed three times with PBS, and fixed with 4% formaldehyde. The uptake of FITC-labeled peptides was analyzed by flow cytometry.
row,Substance,uptake of fluorescein-labelled peptide
1,{FITC}-HMYFLLGH [FITC-E7-p72],dependent on EGFL7 expression

# Target: T1, recombinant GST-EGFL7 protein (Homo sapiens, UniProt Q9UHF1)
# T1 construct: Magnetic nanobeads are then coated with full-length recombinant EGFL7; made in house; host or cells: Spodoptera frugiperda Sf21 (baculovirus)
# T1 sequence (Q9UHF1 24-273): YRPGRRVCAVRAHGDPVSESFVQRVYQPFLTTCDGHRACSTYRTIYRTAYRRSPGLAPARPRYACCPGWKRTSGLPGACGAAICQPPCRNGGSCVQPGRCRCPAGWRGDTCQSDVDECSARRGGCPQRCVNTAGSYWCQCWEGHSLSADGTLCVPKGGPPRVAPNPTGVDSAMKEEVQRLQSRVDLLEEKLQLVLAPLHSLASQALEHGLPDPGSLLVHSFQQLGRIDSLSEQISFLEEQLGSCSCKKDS
# Experiment: OBOC peptide library screen ('beads on a bead') with secondary cell-based screen
# Type: binding
# Conditions: hit beads from magnetic-bead screen and secondary cell-based screen
# Excerpt: The present invention also encompasses methods of screening polypeptides to identify those that interact with EGFL7 and modulate and EGFL7 activity and/or function. In a specific aspect, a combinatorial peptide library is screened using a “beads on a bead” approach, as set out in FIG. 1 and described in Cho et al., which is incorporated herein by reference in its entirety. […] Magnetic nanobeads are then coated with full-length recombinant EGFL7, are mixed with the peptide library, and the most highly interacting library bead “hits” are sorted using large format flow cytometry. An on-bead cell binding assay can then be used to validate the peptide hits using human endothelial cells. Validated hit peptides are then sequenced using an in-house MALDI-TOF/MS technique, and their binding affinity to EGFL7 is quantified using surface plasmon resonance (SPR) (Amadei et al. 2009, J. Mass Spectrometry, 45:241-51; U.S. Pat. Nos. 5,510,240; and 7,262,269, each of which is incorporated by reference herein in its entirety).
# All fractions containing EGFL7 recombinant protein were pooled together. 30 μg of anti-GST antibody was mixed into the protein solution, and incubated with 370 mg of MagnaBind Protein A/G magnetic beads (Thermo Scientific) for 15 minutes at 4° C. After several washing with wash buffer, the proteins were released from the magnetic beads by boiling in SDS loading buffer, and analyzed by western blot using anti-EGFL7 polyclonal antibody (R&D Systems).
# The OBOC peptide library beads were washed extensively using 70% ethanol, distilled water and binding buffer (50 mM Na2HPO4, 150 mM NaCl, 2 mM CaCl2, 0.5M L-Arginine, pH 7.4) before screening. The magnetic beads were mixed with the library beads in a glass vial, and incubated at 37° C. for 1 hour, A strong magnet was placed at the side of the vial, and the library was screened as described in Cho et al. Positive hits were pooled and washed extensively with ethanol and water. A secondary cell-based screen was performed using EGFL7-positive HT1080 fibrosarcoma cells expressing tdTomato, and EGFL7-negative MDA435 breast cancer cells expressing GFP as described in Cho et al. Hit beads were collected and peptides were sequenced on-bead using MALDI TOF MS/MS as described in Cho et al.
# Recombinant EGFL7 protein was purified (FIGS. 2A and 2B) and conjugated onto magnetic beads. Western blot analysis was performed to show successful conjugation of purified EGFL7 onto magnetic beads using a polyclonal anti-EGFL7 antibody (FIG. 2C). EGFL7-conjugated magnetic beads were then mixed with a OBOC combinatorial peptide library, and positive hits were isolated using a strong neodynium magnet. […] Beads were examined under an inverted fluorescence microscope, and hit beads that strongly associated with red cells, but had little or no interaction with green cells were isolated manually.
row,Substance,affinity for EGFL7 in OBOC peptide library screening
1,DPYDHEFR (EGFL7 interacting peptide),high affinity
2,EWELHAEE (EGFL7 interacting peptide),high affinity
3,RYQLHHPR (EGFL7 interacting peptide),high affinity
4,WYKLHPTM (EGFL7 interacting peptide),high affinity

# Continued, values first:
row,affinity for EGFL7 in OBOC peptide library screening,Substance
1,high affinity,AYYEEAYE (EGFL7 interacting peptide)
2,high affinity,RYVDHEDW (EGFL7 interacting peptide)
3,high affinity,SQSSMYPS (EGFL7 interacting peptide)
